The results in this text go back to publication PMC12541621.

In general, Kd refers to the concentration at which binding is half-saturated.

This test deals with Recombinant Human HER2 ECD (human) (UniProt P04626). The test is described as follows: SPR.

As for ABY-025 (designed binder), the Kd is 107 pM.
